Source: patent US20170022268A1 (H LUNDBECK A S, published 2017)
Where no end group is shown, it is not given here. [ ]: non-standard residue; d: D form. pGlu = O=C1CC[C@@H](C(=O)O)N1

T1: pyroglutamated human Aβ3-11 with the addition of a C-terminal cysteine residue, pE-FRHDSGYE-C (human, not fully specified)
T1 construct: The range 3-11 counts on Aβ, not on APP; also called human AβpE3; human AβpE3-11-C
T1 peptide: [pGlu]FRHDSGYEC

T2: pyroglutamated murine Aβ3-11 with the addition of a C-terminal cysteine residue, pE-FGHDSGFE-C (murine, not fully specified)
T2 construct: The range 3-11 counts on Aβ, not on APP; also called murine AβpE3; murine AβpE3-11-C
T2 peptide: [pGlu]FGHDSGFEC


How the values were obtained:
[1] = target: T1, pyroglutamated human Aβ3-11 with the …; assay: SPR (BIAcore 3000), peptide immobilised on CM5 chip
Protocol: (§1) Affinity measurements using SPR technology: Binding affinity of anti-Aβ antibodies was determined using BIAcore 3000 (Biacore, Upsula, Sweden). Human and murine pyroglutaminyl and unmodified Aβ peptides with a C-terminal Cystein were immobilized on a CM5 chip using the 2-(2-pyridinyldithio) ethaneamine hydrochloride (PDEA) coupling technology (GE healthcare).

[2] = target: T2, pyroglutamated murine Aβ3-11 with the …; assay: as above
Protocol: as §1

Binder	binding result [1]	binding result [2]
monoclonal antibody 1G11 (antibody, V domains shown, Mouse hybridoma monoclonal antibody directed against murine AβpE3) VH: EVKLEESGGGLVQPGGSMKLSCTASGLTLSDAWMNWVRQSPEKGLEWVAEIRSKAYKHATYYAESVKGRFTISRDDSKSCIYLQMNTLRAEDTGIYYCTRHGSWGPGTLVTVSA VL: DILMSQSPSSMSVSLGDRVSITCRASQGISSKMGWLQQKPGKSSKGLIYHGTKLEDGVPSRFSGSGSGAEYSLTISSLESEDFGDYYCVQYAQFPYTFGGGTKLEIK	no binding	
monoclonal antibody 2E4 (antibody, V domains shown, Mouse hybridoma monoclonal antibody directed against murine AβpE3) VH: EVKLEESGGGLVQPGGSMKLSCTASGITLNDAWMTWVRQSPEKGLEWVGEIRNKANNHATNYAESVKGRFSISRDDSKGIVYLQMNSLRAEDTGNYYCTRHSYWGPGTLVTVSA VL: DILMTQSPSSMSVSLGDTVSITCHASQGIRNNIGWLQEKPGKSFKGLIYHGTKLEDGIPSRFSGSGSGADYSLTISSLESEDVADYYCVQYDQFPYTFGGGTKLEIK	no binding	
monoclonal antibody 5C9 (antibody, V domains shown, also called LuAb1h) VH: QIQLQQSGPELVKPGAAVKISCKASGYTFTDYYLNWVKQKPGQGLEWIGWIYPGSGNVKYNEKFKGKATLTADTSSNTAHMQLSSLTSEDTAVYFCTREGLIVYWGQGTLVTVSA VL: DVVLTQTPFTLSVTIGQPASISCKSSQSLLHSNGESYLNWLFQRPGQSPKRLIYAVSKLDSGVPDRFTGSGSGTDFTLKISRVEAEDLGVYYCVQGTHFPFTFGGGTKLEIK		no binding
